Assay results taken from patent publication US7005283B2, “Cytochrome P450 oxygenases and their uses” (Washington State University Research Foundation, priority 1999, dated 2006).

How the values were obtained:
[1] = assay type: binding, Saccharomyces cerevisiae
Excerpt: CO-sensor of the 19 full-length cytochrome P450 clones from Taxus, thus far obtained, ten have yielded detectable CO-difference spectra (Table 2). […] These alternative expression systems for cytochrome P450 genes include the yeast Pichia pastoris, for which expression vectors and hosts are commercially available (Invitrogen, Carlsbad, Calif.), as well as established E. coli and baculovirus-insect cell systems for which general expression procedures have been described (Barnes, Methods Enzymol. 272:1–14, 1996;Gonzalez et al., Methods Enzymol. 206:93–99, 1991;Lee et al., Methods Enzymol. 272:86–98, 1996;and Lupien et al., Arch. Biochem. Biophys. 368:181–192, 1999).
Appropriate restriction sites were introduced by standard PCR methods (Innis et al., PCR Protocols: A Guide to Methods and Applications, Academic Press, San Diego, Calif., 1990) immediately upstream of the ATG start codon and downstream of the stop codon of all full-length cytochrome P450 clones. These modified amplicons were gel-purified, digested with the corresponding restriction enzymes, and then ligated into the expression vector pYeDP60. The vector/insert junctions were sequenced to ensure that no errors had been introduced by the PCR construction. Verified clones were transformed into yeast using the lithium acetate method (Ito et al., J. Bacteriol. 153:163–168, 1983). Isolated transformants were grown to stationary phase in SGI medium (Pompon et al., Methods Enzymol. 272:51–64, 1996), and used as inocula for a large-scale expression culture grown in YPL medium (Pompon et al., Methods Enzymol. 272:51–64, 1996). Approximately 24 hours after induction of cytochrome P450 expression with galactose (to 10% final concentration), a portion of the yeast cell culture was harvested by centrifugation. One-half of the culture was treated with carbon monoxide, and the cytochrome P450 CO-difference spectrum was recorded directly (using untreated cells as a control) by spectrophotometry (Omura and Sato, J. Biol. Chem. 239:2370–2378, 1964).

[2] = In vivo assay of yeast cells expressing recombinant oxygenases, radio-HPLC, substrate taxadien-5α-ol; assay type: cell-based, Saccharomyces cerevisiae; conditions: assayed with Taxadien5αol; graded symbols, key not given
Excerpt: (§1) Transformed yeast cells that fimctionally express a recombinant cytochrome P450 gene from Taxus (by CO-difference spectrum) can be tested in vivo for their ability to oxygenate (hydroxylate or epoxidize) taxoid substrates fed exogenously to the cells, thereby eliminating the need for microsome isolation for preliminary in vitro assays.
(§2) Accordingly, several clones of the available full-length clones were expressed in induced yeast host cells.
(§3) Isolated transformants for each full-length cytochrome P450 clone shown to express a functional enzyme by CO-difference spectrum (ten clones) were grown to stationary phase in 2 mL SGI medium at 30° C. and used to inoculate a 10-mL expression culture (in YPL medium). Approximately 8 hours after induction, cells were harvested by centrifugation (10 minutes at 1500 rpm), and the pellet was resuspended in 2 mL of fresh YPL medium.
(§4) To eliminate additional complication and uncertainty associated with microsome isolations for in vitro assays, 10^6 dpm of [20-^3H3]taxa-4(5),11(12)-diene (16 Ci/mol) or [20-^3H2]taxa-4(20),11(12)-diene-5-α-ol (4.0 Ci/mol), or other taxoid substrate were added directly to the cell suspension to assay conversion in vivo. After 12 hours of incubation at 30° C. with agitation (250 rpm), the mixture was treated for 15 minutes in a sonication bath and extracted 3 times with 2 mL diethyl ether to insure isolation of the biosynthetic products. These ether extracts, containing residual substrate and derived product(s), were concentrated to dryness, resuspended in 200 μL of CH3CN, and filtered. These samples were analyzed by radio-HPLC (Hefner et al., Chemistry and Biology 3:479–489, 1996) using a 4.6 mm i.d.×250 mm column of Econosil C18, 5 μ (Alltech, Deerfield, Ill.) with a gradient of CH3CN in H2O from 0% to 85% (10 minutes at 1 mL/minute), then to 100% CH3CN over 40 minutes.

[3] = In vivo assay of yeast cells expressing recombinant oxygenases, radio-HPLC, substrate taxadiene; assay type: cell-based, Saccharomyces cerevisiae; conditions: assayed with Taxadiene; graded symbols, key not given
Excerpt: as §1, §2, §3, §4

B1: clone F23: Taxus cuspidata cytochrome P450 oxygenase, full-length clone, SEQ ID NO: 84 (nt) / 90 (aa) (protein, listed as Taxus cuspidata)
chain: MELWNMFLPWISIATATSLTVGMASAFAIIYAPLLLSFLRLKTARRNMPPIPPGSMGMPFWGESLGYLGSWNNQSNPDVWYDTRKAKHGKIFTTHILGSPTVVMLGPDANRFILINENKLFLNSWPKSLNALIGKHALITSQGAEHKRMRRIIHSVLGPRNPETSVGRFEGLVLHHLDSDWHGGQIIQAYRQVKDMALCLAADFFMGLKPGKELETFRRHFSDFSAGLLSHPLDLPWTVFGKAKRARAAMVTQIFSQIRLHRTSMHKSGEEGGNFLDMVLGSQEKGGDLRLSEEEIADNLMGLLTGGQDTTASALATILKHLSLSPHLLQRLRKECEKLRDNKEAGGPLTWSEIKSVGYLHNVISEGLRMVAPINGGFKKAKVDVVYGGYTIPKGWKVHYSVRQTNNKEEYFPSPERFDPDRFNERHEPFSFIPFGQGNRMCPGNEFARLEMELFLYHLVLRYDWELMEADERTNMYFIPHPVHSLPLLLKHVPPT
CO diff. spec. [1]: − | product identified HPLC peak [2]: No | product identified HPLC peak [3]: No

B2: clone F10: Taxus cuspidata cytochrome P450, outlying full-length clone, SEQ ID NO: 55 (nt) / 68 (aa) (protein, listed as Taxus cuspidata)
chain: MAFEAATVILFTLAALLLVVIQRRRIRRHKLQGKVKAPQPPSWPVIGNLHLLTQKVPIHRILSSLSESYGPIMHLQLGLRPALVIASSDLAKECFTTNDKAFASRPRLSAGKHVGYDYKIFSMAPYGSYWRNLRKMCTIQILSATRIDSFRHIRVEEVSALIRSLFDSCQREDTPVNMKARLSDLTFSIILRMVANKKLSGPVYSEEYEEADHFNQMIKQSVFLLGAFEVGDFLPFLKWLDLQGFIAAMKKLQQKRDVFMQKLVIDHREKRGRVDANAQDLIDVLISATDNHEIQSDSNDDVVKATALTMLNAGTDTSSVTIEWALAALMQHPHILSKAQQELDTHIGRSRLLEEADLHELKYLQAIVKETLRLYPAAPLLVPHEAIEDCTVGGYHVSAGTRLIVNAWAIHRDPAVWERPTVFDPERFLKSGKEVDVKGREFELIPFGSGRRMCPGMSLALSVVTYTLGRLLQSFEWSVPEGMIIDMTEGLGLTMPKAVPLETIIKPRLPFHLY
CO diff. spec. [1]: + | product identified HPLC peak [2]: No | product identified HPLC peak [3]: No

B3: clone F19: Taxus cuspidata cytochrome P450 oxygenase, full-length clone, SEQ ID NO: 50 (nt) / 63 (aa) (protein, listed as Taxus cuspidata)
chain: MDAFNILKGPAAKLNGVVQLGSYTDRILSITVVAFITILLLLMLRWKSQSSVKLPPGNFGFPLIGETLQLLRAFRSNTTQQFFDERQKKFGCVFKTSLVGERTVVLCGPSGNRLVLANQNKVVESSWPSAFIKLIGEDSIANTNGEKHRILRAALLRYLGPGSLQNYVGKMRSEIEHHINEKWKGKDEVKVLDLVRKNVFSVATALFFGVNDEERKRIRPPSILRKLHFAGSFSIPLDFPGTSYRRALEARLKLDKILSSLIERRRSDLRSGLASGNEDLVSVLLTFKDEGGNPLTDKEILDNFSGLLHASYDTTTSALTLTFKLMSSSAECYDKVVQEQLRIVSNKKEGEEISLKDLKDMKYTWQVVQETLRMFPPLFGSFRKTIADIQYDGYTIPKGWKVLWATYTTHGRDEYFSEPQKFRPSRFEEGGKHVAPYTFLPFEGGERTCPGYEFSKTHILLFIHQFVKTFTGYIPLDPNESISANPLPPLPANGFPVKLFQRS
CO diff. spec. [1]: − | product identified HPLC peak [2]: No | product identified HPLC peak [3]: No

B4: clone F42: Taxus cuspidata cytochrome P450 oxygenase, full-length clone, SEQ ID NO: 45 (nt) / 58 (aa) (protein, listed as Taxus cuspidata)
chain: MDSFSFLKSMEAKFGQVIHRDQSSSTALLSLAFTAAVAIFLVLLFRFKSRPSTNFPPGNFGFPFIGETIQFLRALRSESPHMFFDERLKKFGRVFKTSLTGHPTAVFCGPAGNRFIYSNEHKLVQSSGPNSFVKLVGQQSIVTKTGEEHRIFLGVLNEFLGPHALQSYTPKMSSKIQENINKHWKGKDEVNMLPSIRQLVFSISSSLFFDINDEDQQEQLKTLLETILVGTLSVPLDIPGSNFRKALRARSKLDEILSRLIESRRKDMRSGIASTSKNLLSVLLAFKDERGNPLTDTEILDNFSFMLHASYDTTVSPTVCIFKLLSANPECYEKVVQEQLGILGNKKDGEEMCWNDLKAMKYTWQAAQETMRLFPPAFGSFRKVIADIHHDGYIIPKGWKAMVTNYSTSRKEEYFDEPDNFKPSRFGDGKYVAPYTFLPFGAGIRICPGWEFAKLEMLLFIHHFVKNFSGYLPLDTKEKISGDPFPPLPKNGFPIKLFPRT
CO diff. spec. [1]: − | product identified HPLC peak [2]: No | product identified HPLC peak [3]: No

B5: clone F56: Taxus cuspidata cytochrome P450 oxygenase, full-length clone, SEQ ID NO: 49 (nt) / 62 (aa) (protein, listed as Taxus cuspidata)
chain: MDTLIQIQSSPDFLSFTLTAFLGVVVLLIFRYKHRSALKLPPGNLGLPFIGETITFASQPPQKFLNERGKKFGPVFKTSLIGHPTVVLCGSSGNRFLLSNEEKLVRMSLPNSYMKLLGQDSLLGKTGQEHRIVRTALGRFLGPQELQNHVAKMSSDIQHHINQKWKGNDEVKVLPLIRNLVFSIATSLFFGINDEHQQERLHLLLETIVMGAVCIPLAFPGSGFRKALQARSELDGILISLMKIRRSDLRSGAASSNQDLLSVLLTFKDERGNPLTDKEILDNFSVLLHGLYDTTISPLTLIFKLMSSNTECYENVVQEQLEILSHREKGEEIGWKDLKSMKYTWQAIQETLRMFPPVYGNFRKALTDIHYDGYTIPKGWRVLCSPFTTHSNEEYFNEPDEFRPSRFEGQGKNVPSYTFIPFGGGLRICPGWEFAKTEMLLFIHYFVKTFSSYVPVDPNEKISADPLASFPVNGFSVKLFPRS
CO diff. spec. [1]: − | product identified HPLC peak [2]: No | product identified HPLC peak [3]: No

B6: clone F55: Taxus cuspidata cytochrome P450 oxygenase, full-length clone, SEQ ID NO: 52 (nt) / 65 (aa) (protein, listed as Taxus cuspidata)
chain: METKFGQLMQLEFLPFILTPILGALVLLHLFRHRNRSSVKLPPGKLGFPVIGETIQFLRALRSQTPQKFFDDRVQKFGGVFKTSLIGNPLVVMCGPAGNRLVLSNEDKLVQLEAPNSLMKLMGQDSLLAKRQEDHRTLRAALARFLGPQALXNYMTKISSRTEHHMNEKWKGKDEVRTLPLIRELIFSNASSLFFDINDEHQQERLHHLLEAVVVGSMSIPLDFPGTRLRKALQARSKLDEILSSLIKSRRKDLVSGIASDDQDLLSVLLTFKDERGNPLTDKEILDNFSLLLHASYDTTVSPMVLTLKLLSSNPECYEKVVQEQLGIVANKRIGEEISWKDLKAMKYTWQVVQETLRMFPPLFGSFRKAMVDIDYDGYTIPKGWMILWTTYGTHLREEYFNEPLKFRPSRFEEDGRVTPYTFIPFGGGARTCPGWEFSKTEILLFIHHFVRTFSSYLPVDSNEKISADPFPPLPANGFSIKLSADPFPPLPANGFSIKLFPRSQSN
modifications: not fully specified; (1)..(507) “Xaa” equals any peptide
CO diff. spec. [1]: − | product identified HPLC peak [2]: No | product identified HPLC peak [3]: No
